We go through 9 molecules from publication PMC10018359, “Allosteric effects of E. coli SSB and RecR proteins on RecO protein binding to DNA” (Nucleic Acids Research, 2023).

The labels stand for the following.
T1: RecO;RecR (Escherichia coli;Escherichia coli, UniProt P0A7H3;P0A7H6 1-242;1-201, |)
T1 sequence 1: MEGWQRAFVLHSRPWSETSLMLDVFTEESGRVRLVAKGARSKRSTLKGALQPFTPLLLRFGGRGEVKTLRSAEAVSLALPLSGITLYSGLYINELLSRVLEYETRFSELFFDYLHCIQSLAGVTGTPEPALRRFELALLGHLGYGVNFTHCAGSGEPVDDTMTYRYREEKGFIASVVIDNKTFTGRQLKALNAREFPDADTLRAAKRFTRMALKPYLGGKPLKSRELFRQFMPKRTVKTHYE
T1 sequence 2: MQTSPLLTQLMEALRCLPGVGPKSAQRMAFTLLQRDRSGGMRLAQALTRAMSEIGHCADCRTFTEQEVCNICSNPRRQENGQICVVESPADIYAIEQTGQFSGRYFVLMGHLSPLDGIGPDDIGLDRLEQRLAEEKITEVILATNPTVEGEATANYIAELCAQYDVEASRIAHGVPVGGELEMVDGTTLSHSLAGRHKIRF

T2: RecO (Escherichia coli, UniProt P0A7H3 1-242)
T2 sequence: T1 sequence 1

B1: (dT)70 (ssDNA)
DNA: TTTTTTTTTTTTTTTTTTTTTTTTTTTTTTTTTTTTTTTTTTTTTTTTTTTTTTTTTTTTTTTTTTTTTT
B2: Cy3-(dT)68 (ssDNA)
DNA: TTTTTTTTTTTTTTTTTTTTTTTTTTTTTTTTTTTTTTTTTTTTTTTTTTTTTTTTTTTTTTTTTTTT
B3: Cy3-(dT)140 (ssDNA)
DNA: TTTTTTTTTTTTTTTTTTTTTTTTTTTTTTTTTTTTTTTTTTTTTTTTTTTTTTTTTTTTTTTTTTTTTTTTTTTTTTTTTTTTTTTTTTTTTTTTTTTTTTTTTTTTTTTTTTTTTTTTTTTTTTTTTTTTTTTTTTTT
B4: Escherichia coli RecO protein (natural protein, E. coli, UniProt P0A7H3 1-242, looked up)
chain: T1 sequence 1
notes: RecO, recombination mediator protein of the RecF pathway, E. coli; also called E. coli RecO; source: E. coli BL21(DE3) pLysS, plasmid pMCSG7, purified (Ni-NTA, HiTrap Heparin HP) after His-tag cleavage with TEV protease
B5: Escherichia coli RecR protein (natural protein, E. coli, UniProt P0A7H6 1-201, looked up)
chain: T1 sequence 2
notes: RecR, recombination mediator protein, E. coli; in the complex with RecO found here it is a tetramer (RecR4O); also called E. coli RecR; source: E. coli BL21 Rosetta 2(DE3)pLysS, plasmid pMCSG7, purified (Ni-NTA), His-tag cleaved with TEV protease

For data set [1], the target named is SSB-Ct peptide C-terminal tail (Escherichia coli) (UniProt P0AGE0). Description: given as Ka. As to conditions: cited from earlier work.
For data set [2], the target named is B4. Description: AUC; sedimentation equilibrium, 18 000, 23 000 and 28 000 rpm, 25°C, buffer BTP (pH 8.0, 50 mM NaCl, 25% glycerol, 1 mM TCEP); RecO 2.24 uM, SSB-Ct 13.4 uM, Cy3-(dT)15 or Cy3-(dT)35 0.56 uM; absorbance of the Cy3-DNA at 546 nm; one-species fit. As to conditions: both partners purified.
Data set [3] concerns the target T1, RecO;RecR. Kind of data set: AUC sedimentation velocity; no SSB-Ct; 2.9 S; Buffer BTP: 20 mM Bis-Tris propane pH 8.0, 50 mM NaCl, 25% (v/v) glycerol, 1 mM TCEP, 25 C. As to conditions: protein: recombinant;recombinant; tags: His-tag cleaved with TEV (pMCSG7);His-tag cleaved with TEV (pMCSG7); label: 3'-Cy3.
Data set [4] has as its target T3, RecO;SSB-Ct peptide (P15) (Escherichia coli;Escherichia coli, UniProt P0A7H3;P0AGE0 1-242;, |). Description: AUC sedimentation velocity and equilibrium; 13.4 uM SSB-Ct; 0.7 S; 31.8 kDa, 1 RecO per DNA; Buffer BTP: 20 mM Bis-Tris propane pH 8.0, 50 mM NaCl, 25% (v/v) glycerol, 1 mM TCEP, 25 C. Particulars: tags: His-tag cleaved with TEV (pMCSG7);; copies: 1;1; label: 3'-Cy3.

Data set [5] addresses T4, RecO;RecR;SSB-Ct peptide (P15) (Escherichia coli;Escherichia …, UniProt P0A7H3;P0A7H6;P0AGE0 1-242;1-201;, ||). Description: AUC sedimentation velocity and equilibrium; 13.4 uM SSB-Ct; 2.6 S; 131.1 kDa, RecR4O with one DNA; Buffer BTP: 20 mM Bis-Tris propane pH 8.0, 50 mM NaCl, 25% (v/v) glycerol, 1 mM TCEP, 25 C. As to conditions: tags: His-tag cleaved with TEV (pMCSG7);His-tag cleaved with TEV (pMCSG7);; label: 3'-Cy3.

In data set [6] the target is T2, RecO. Kind of data set: light scattering; no SSB-Ct; onset at RecO/DNA 6; Buffer BTP: 20 mM Bis-Tris propane pH 8.0, 50 mM NaCl, 25% (v/v) glycerol, 1 mM TCEP, 25 C. Particulars: protein: recombinant; tags: His-tag cleaved with TEV (pMCSG7).
In data set [7] the target is T4, RecO;RecR;SSB-Ct peptide (P15). Description: AUC sedimentation velocity; 13.4 uM SSB-Ct; 3.8 S; Buffer BTP: 20 mM Bis-Tris propane pH 8.0, 50 mM NaCl, 25% (v/v) glycerol, 1 mM TCEP, 25 C. Particulars: tags: His-tag cleaved with TEV (pMCSG7);His-tag cleaved with TEV (pMCSG7);; label: 3'-Cy3.
The target in data set [8] is T3, RecO;SSB-Ct peptide (P15). Description: AUC sedimentation velocity and equilibrium; 13.4 uM SSB-Ct; 1.2 S; 70.1 kDa, 2 RecO per DNA; Buffer BTP: 20 mM Bis-Tris propane pH 8.0, 50 mM NaCl, 25% (v/v) glycerol, 1 mM TCEP, 25 C. Particulars: tags: His-tag cleaved with TEV (pMCSG7);; copies: 1;1; label: 3'-Cy3.
For data set [9], the target named is T1, RecO;RecR. Kind of data set: AUC sedimentation velocity; no SSB-Ct; 5.4 S; Buffer BTP: 20 mM Bis-Tris propane pH 8.0, 50 mM NaCl, 25% (v/v) glycerol, 1 mM TCEP, 25 C. As to conditions: protein: recombinant;recombinant; tags: His-tag cleaved with TEV (pMCSG7);His-tag cleaved with TEV (pMCSG7); label: 3'-Cy3.
Data set [10] concerns the target T1, RecO;RecR. Description: AUC sedimentation velocity; no SSB-Ct; 6.3 S; Buffer BTP: 20 mM Bis-Tris propane pH 8.0, 50 mM NaCl, 25% (v/v) glycerol, 1 mM TCEP, 25 C. As to conditions: protein: recombinant;recombinant; tags: His-tag cleaved with TEV (pMCSG7);His-tag cleaved with TEV (pMCSG7); label: 3'-Cy3.
Data set [11] addresses T3, RecO;SSB-Ct peptide (P15). Kind of data set: AUC sedimentation velocity; 13.4 uM SSB-Ct; 1.9 S; Buffer BTP: 20 mM Bis-Tris propane pH 8.0, 50 mM NaCl, 25% (v/v) glycerol, 1 mM TCEP, 25 C. Particulars: tags: His-tag cleaved with TEV (pMCSG7);; copies: 1;1; label: 3'-Cy3.
Data set [12] concerns the target T4, RecO;RecR;SSB-Ct peptide (P15). Kind of data set: AUC sedimentation velocity; 13.4 uM SSB-Ct; 4.7 S; Buffer BTP: 20 mM Bis-Tris propane pH 8.0, 50 mM NaCl, 25% (v/v) glycerol, 1 mM TCEP, 25 C. Particulars: tags: His-tag cleaved with TEV (pMCSG7);His-tag cleaved with TEV (pMCSG7);; label: 3'-Cy3.
Data set [13] shares this target. Description: AUC sedimentation velocity; 13.4 uM SSB-Ct; 4.8 S; Buffer BTP: 20 mM Bis-Tris propane pH 8.0, 50 mM NaCl, 25% (v/v) glycerol, 1 mM TCEP, 25 C. Particulars: tags: His-tag cleaved with TEV (pMCSG7);His-tag cleaved with TEV (pMCSG7);; label: 3'-Cy3.
Data set [14] deals with T3, RecO;SSB-Ct peptide (P15). Description: AUC sedimentation velocity; 13.4 uM SSB-Ct; 2.1 S; Buffer BTP: 20 mM Bis-Tris propane pH 8.0, 50 mM NaCl, 25% (v/v) glycerol, 1 mM TCEP, 25 C. Particulars: tags: His-tag cleaved with TEV (pMCSG7);; copies: 1;1; label: 3'-Cy3.
For data set [15], the target named is T1, RecO;RecR. Description: AUC sedimentation velocity; no SSB-Ct; 5.7 S; Buffer BTP: 20 mM Bis-Tris propane pH 8.0, 50 mM NaCl, 25% (v/v) glycerol, 1 mM TCEP, 25 C. As to conditions: protein: recombinant;recombinant; tags: His-tag cleaved with TEV (pMCSG7);His-tag cleaved with TEV (pMCSG7); label: 3'-Cy3.
Data set [16] deals with B5. Description: AUC; sedimentation equilibrium, 18 000, 23 000 and 28 000 rpm, 25°C, buffer BTP; RecO 2.24 uM, RecR 8.96 uM, SSB-Ct 13.4 uM, Cy3-(dT)15 0.56 uM; absorbance of the Cy3-DNA at 546 nm; one-species fit. As to conditions: both partners purified.
The target of data set [17] is B4. Description: AUC; sedimentation velocity, 42,000 rpm, 25°C, buffer BTP; RecO 2.24 uM, RecR 8.96 uM, Cy3-(dT)L (L = 15, 35, 68, 140) 0.56 uM, in the absence and presence of SSB-Ct 13.4 uM; absorbance of the Cy3-DNA at 546 nm; c(s) distributions. Particulars: both partners purified.
Data set [18] concerns the molecule itself. Description: AUC; sedimentation equilibrium, 18 000, 23 000 and 28 000 rpm, 25°C, buffer BTP; RecO 2.24 uM, RecR 8.96 uM, SSB-Ct 13.4 uM, Cy3-(dT)15 0.56 uM; absorbance of the Cy3-DNA at 546 nm; one-species fit.

Chain of SSB-Ct peptide C-terminal tail (Escherichia coli) (P0AGE0 whole entry, looked up): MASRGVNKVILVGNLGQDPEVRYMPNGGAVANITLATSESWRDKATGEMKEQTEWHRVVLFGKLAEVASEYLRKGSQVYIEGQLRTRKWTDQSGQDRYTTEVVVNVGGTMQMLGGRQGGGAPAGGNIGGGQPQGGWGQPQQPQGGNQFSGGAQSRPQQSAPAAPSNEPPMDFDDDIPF

With RecO (from UniProt P0A7H3), the Kd (in general, the equilibrium constant for the complex coming apart) in data set [1] was 83.3 nM.
On to PSNEPPMDFDDDIPF (source: bought: WatsonBio (Houston, TX)) [SSB-Ct peptide, composed of the 15 C-terminal amino acids of E. coli SSB], for which the binding result in data set [2] is listed as “binds”.
With TTTTTTTTTTTTTTT (ssDNA) [Cy3-(dT)15], the binding result in data set [3], in data set [4] and in data set [5] was “binds” in each case.
For B1, the binding result in [6] is given as “binds”.
Consider TTTTTTTTTTTTTTTTTTTTTTTTTTTTTTTTTTT (ssDNA) [Cy3-(dT)35], for which the binding result in [7], in [8] and in [9] was “binds” in each case.
As to B2, the binding result in data set [10], in data set [11] and in data set [12] was “binds” throughout.
As for B3, the binding result in data set [13], in data set [14] and in data set [15] was “binds” each time.
Take B4: the stoichiometry N (commonly the number of molecules, sites or subunits per partner or assembly) in data set [16] came to 1 RecO per RecR tetramer.
Regarding B5, in [17], the binding result is listed as “binds”. The “stoichiometry N” value in [18] came out at 4.
